Results as given in patent US20230391859A1.

Columns and labels:
[1] = target: cardiac amyloid deposits (ATTR amyloid) (UniProt P02766); test: ex vivo binding curve on cardiac tissue sections with amyloid (FIG. 5G)
[2] = target: cardiac amyloid deposits (ATTR amyloid) (UniProt P02766); test: ex vivo binding curve on cardiac tissue sections with amyloid (FIG. 5G); same value in mass units
[3] = target: cardiac amyloid deposits (ATTR amyloid) (UniProt P02766); test: ex vivo binding to cardiac amyloid in tissue sections, quantified as % of maximum

Kd [1]: 1.75 nM | Kd [2]: 0.26 mg/L | EC50 (read off the curve) [3]: 0.3 mg/L
Substance: murine precursor of PRX004 (mPRX004) (antibody)
